In US9040626B2, “Nanofibers and morphology shifting micelles” (The Regents of the University of California, priority 2009, dated 2015):
d = 2'-deoxy (DNA); r = 2'-OH (RNA)

Legend:
[1] = Zeta potential measurement with variable MgCl2 concentration; assay type: physicochemical; conditions: vesicles, 5 mM MgCl2
From the text: (§1) General Methods. All reagents were bought from TCI or Sigma-Aldrich and used without further purification. DNA synthesis reagents and modifiers were bought from Glen Research or AZCO scientific. 3,4-di(octadecyloxy)benzoic acid was synthesized via a standard literature procedure (Tuffin, R. P.; Toyne, K. J.; Goodby, J. W. J. Mater. Chem. 1996, 6, 1271-1282). All DNA was synthesized on an ABI-391 via standard solid phase synthesis on controlled pore glass supports. Fluorescence measurements were performed on a Zeiss LSM confocal fluorescence microscope. Reaction volumes of 50 μL were used in all fluorescence experiments of this type. […] DNA-surfactant and DNA concentrations were determined via UV-Vis on a Hitachi U-2810 spectrophotometer. Dh was determined by DLS on a Nano-ZS90 Malvern Instrument. Zeta potential was also measured on the Nano-ZS90 Malvern instrument. […] The identities of organic molecules were confirmed by ^1H (400 MHz) and ^13C (100 MHz) NMR spectra recorded on a Varian Mercury Plus spectrometer. […]
Zeta potential measurement with variable MgCl2 concentration. […] The zeta potential of these samples with variable MgCl2 concentrations was then measured by a Nano-ZS90 Malvern instrument. […]

[2] = Particle size by DLS, TEM, AFM, SEM; assay type: physicochemical
From the text: as §1
General Methods. […] Fluorescence measurements were performed with a microplate reader (Perkin Elmer, HTS7000 Plus, λex=485 nm, λem=535 nm) using black 96 well plates. Reaction volumes of 100 μL were used in all fluorescence experiments of this type. […]

[3] = Critical micelle concentration (CMC) determination with pyrene probe; assay type: physicochemical; conditions: micelles after DNA2 hybridization
Protocol: Critical Micelle Concentration (CMC) determination. A stock solution of pyrene was prepared by adding 1 mg pyrene in 10 mL of 20 mM Tris buffer (pH 7.4) and sonicating for 12 hrs, followed by centrifugation at 12,000×g for 5 min. The supernatant containing pyrene as the fluorescent probe was utilized for this assay and measured on a plate reader fluorometer, SPECTRAMAX GEMINI EM (Molecular Devices). DNA-lipid concentration was measured via UV absorbance and micelles were accordingly diluted serially in 96-well microplates (black well, black bottom, FIA, Greiner Bio-One). Excitation was done over a 300-360 nm wavelength range and the emission was recorded at 390 nm. The slit width for excitation was fixed at 1 nm. The concentration was plotted on a logarithmic scale and the critical micelle concentration was determined at the intercept of the two tangents drawn where the decreasing surface tension becomes constant.

DNAzyme = DNAzyme catalysis experiments: particle substrate vs ssDNA substrate; assay type: biochemical
Protocol: DNAzyme catalysis experiments. Fluorescence was directly measured at time points of 2 min, 5 min, 10 min, and 15 min after adding DNAzyme to F-ssDNA solutions in a 96-well plate. Maximum fluorescence for the DNAzyme (5 nM) added to micellar particles (0.14 g/L) at 15 minutes was set to a value of 1 for normalization of data. Complete consumption of particle bound substrate was confirmed by a calibration curve plotted for fluorescence vs concentration of a fluorescein-modified oligonucleotide (DNA-F—see above for synthesis and sequence). i.e. plateau in resulting curve is due to consumption of substrate not product inhibition. […] Fluorescent product from shell DNA cleavage was measured from supernatant that passed through a 10,000 MWCO spin tube filter. i.e. particles are left behind, and fluorescent product comes through for analysis at each time point. […]
The DNAzyme catalyst consists of a conserved DNA sequence forming a catalytic domain with 5′- and 3′-ends as recognition sequences.^22 Therefore, a DNA substrate with a single RNA base (rA) as the site of cleavage was chosen for incorporation in the DNA-brush copolymer architecture used to form micellar aggregates (FIG. 25). […] By centrifuging at 14,000×g for 30 seconds at given time points, the ssDNA product was separated from particles as it passed through the MWCO filter for analysis by fluorescence. […]

| Substance | zeta-potential [1] | micelle size ([2]; after DNA2 addition to vesicles) | vesicle diameter ([2]; spherical vesicles after dialysis, Tris 50 mM pH 7.4) | critical micelle concentration [3] | DNAzyme turnovers (DNAzyme; 2 μM substrate, 5 nM catalyst) | DNAzyme turnover over the same time scale (15 minutes) (DNAzyme; F-ssDNA 1 μM, DNAzyme 5 nM) |
| --- | --- | --- | --- | --- | --- | --- |
| DNA1-lipid: 3,4-di(octadecyloxy)benzoic acid conjugated to 5′-amino 9-mer ssDNA 5′-NH2-TCGCACCCA-3′; assembles into vesicles | −13 mV | 20-25 nm | approx. 500 nm | 300 nM |  |  |
| Fluorescein-5′-TCGCACCCrAGTCTCTCTCC-3′-Dabcyl (DNA TCGCACCCAGTCTCTCTCC; sugars from the 5' end d8 r1 d10, backbone not given here; further chemistry not fully specified) [F-ssDNA, fluorogenic single-stranded DNA substrate] |  |  |  |  | 1.5 turnovers | low turnover |
